This is an account of results in PMC7246916, “14-3-3 Proteins and Other Candidates form Protein-Protein Interactions with the Cytosolic C-terminal End of SOS1 Affecting Its Transport Activity” (International Journal of Molecular Sciences, 2020).

The target in the assay is T1, recombinant (10xHis)-labelled At14-3-3ω (Arabidopsis thaliana, UniProt Q01525 1-259).
T1 construct: 14-3-3 isoform omega, Arabidopsis thaliana; Construct details are in the Suppl; Methods; also called His-tagged 14-3-3ω protein; source: host in the Suppl; Methods
T1 sequence (looked up): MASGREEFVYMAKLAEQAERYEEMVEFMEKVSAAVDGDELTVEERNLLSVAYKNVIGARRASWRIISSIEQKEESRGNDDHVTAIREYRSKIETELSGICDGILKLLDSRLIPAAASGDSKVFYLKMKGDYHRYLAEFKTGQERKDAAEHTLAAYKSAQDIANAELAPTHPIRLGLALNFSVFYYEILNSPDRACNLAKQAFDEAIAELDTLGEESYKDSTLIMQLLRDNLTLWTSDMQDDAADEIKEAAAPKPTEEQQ
The assay can be described thus: peptide or protein array; 15-mer synthetic peptides of SOS1 from amino acid 446, overlapping by 12, spotted on a cellulose membrane; incubated with recombinant 10xHis-14-3-3ω; anti-His antibody, HRP-coupled anti-mouse antibody, ECL. The following applies: both partners purified.

B1: SOS1 C-term 15-mer peptide, spot H14 (peptide)
peptide: NTMVESSDEEDEDEG
notes: SOS1 (NHX7), Arabidopsis thaliana; source: synthetic peptide, immobilized on a cellulose membrane
Consider B1, for which the binding result is recorded as “binds”.

B2: SOS1 C-term 15-mer peptide, spot H13 (peptide)
peptide: TRQNTMVESSDEEDE
notes: as for B1
Turning to B2, the binding result is on record as “binds”.
